Experimental data reported in patent publication US8586538B2, “Method of treating a patient suffering from a bleeding disorder comprising administering an antibody against the A3-C1 of FVIII” (Stichting Sanquin Bloedvoorziening, priority 2002, dated 2013).
Several values for one entry are separate records, joined by “and”; a condition that tells them apart may be missing. Equal values may be shown once. No end group written: not given here.

Legend:
[1] = biological target: T1, interaction between FVIII light chain and LRP cluster II (Homo sapiens, UniProt Q07954); assay: Solid-phase competition: FVIII light chain binding to immobilized LRP cluster II; conditions: FVIII light chain 25 nM; peptide 0-1 mM; 2 h at 37° C
T1 construct: Recombinant LRP clusters II or IV (1 pmol/well) were adsorbed onto microtiter wells; made in house; host or cells: LRP cluster II: BHK cells; FVIII light chain: plasma-derived
T1 sequence (Q07954 803-1182): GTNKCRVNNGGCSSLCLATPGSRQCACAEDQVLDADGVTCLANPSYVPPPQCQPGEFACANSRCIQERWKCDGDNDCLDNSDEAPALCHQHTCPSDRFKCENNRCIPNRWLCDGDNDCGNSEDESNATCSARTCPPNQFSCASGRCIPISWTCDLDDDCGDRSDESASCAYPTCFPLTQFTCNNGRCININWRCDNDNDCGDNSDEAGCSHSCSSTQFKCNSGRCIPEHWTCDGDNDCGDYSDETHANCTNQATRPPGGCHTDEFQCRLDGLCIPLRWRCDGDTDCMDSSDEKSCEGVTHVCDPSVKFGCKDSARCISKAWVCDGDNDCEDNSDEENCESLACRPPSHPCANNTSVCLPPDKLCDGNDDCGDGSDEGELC
Method: (§1) FIG. 4. Effect of scFv antibody fragments on the interaction between FVIII light chain and LRP. A, FVIII light chain (LCh) (25 nM) was incubated with immobilized LRP cluster II (1 pmol/well) in a volume of 50 μl in 150 mM NaCl, 5 mM CaCl2, 1% (w/v) HSA, 0.1% Tween® 20, and 50 mM Tris (pH 7.4) in the presence of various concentrations (0-100 nM) of scFv KM41 (closed circles) or scFv KM36 (open circles) for 2 h at 37° C. After washing with the same buffer, bound FVIII light chain was quantified by incubation with peroxidase-conjugated anti-FVIII antibody CLB-CAg 12 for 15 min at 37° C. Residual binding is expressed as the percentage of binding in the absence of competitor and is corrected for nonspecific binding (less than 5% relative to binding to LRP cluster II-immobilized wells). Data represent the mean±S.D. of three experiments. B, FVIII light chain (50 nM) was incubated with immobilized LRP (16 fmol/mm^2) as described in the legend of FIG. 1. Binding was assessed in the absence (curve 1) or in the presence of increasing concentrations of scFv KM41 (20, 60, 300, 500 nM, curves 2-5, respectively). Complexes were allowed to form for 30 min before SPR analysis.
(§2) FIG. 5. Effect of scFv KM33 on the interaction between FVIII light chain and LRP. FVIII light chain (LCh) (25 nM) was incubated with immobilized LRP cluster II (1 pmol/well) in a volume of 50 μl in 150 mM NaCl, 5 mM CaCl2, 1% (w/v) HSA, 0.1% Tween® 20, and 50 mM Tris (pH 7.4) in the presence of various concentrations (0-30 nM) of scFv KM36 (open circles) or scFv KM33 (closed circles) for 2 h at 37° C. After washing with the same buffer, bound FVIII Light chain was quantified by incubation with peroxidase-conjugated anti-FVIII antibody CLB-CAg 12 for 15 min at 37° C. Residual binding is expressed as the percentage of binding in the absence of competitor and is corrected for nonspecific binding (less than 5% relative to binding to cluster-coated wells). Data represent the mean±S.D. of three experiments.
(§3) Recombinant LRP clusters II or IV (1 pmol/well) were adsorbed onto microtiter wells in 50 mM NaHCO3 (pH 9.8) in a volume of 50 μl for 16 h at 4° C. Wells were blocked with 2% (w/v) HSA, 150 mM NaCl, 5 mM CaCl2, and 50 mM Tris (pH 7.4) in a volume of 200 μl for 1 h at 37° C. After three rapid washes (less than 5 seconds each) with 150 mM NaCl, 5 mM CaCl2, 0.1% (v/v) Tween® 20, and 50 mM Tris (pH 7.4), FVIII light chain or its derivatives were incubated at various concentrations in a volume of 50 μl in a buffer containing 150 mM NaCl, 5 mM CaCl2, 1% (w/v) HSA, 0.1% (v/v) Tween® 20, and 50 mM Tris (pH 7.4) for 2 h. at 37° C. Bound ligand was detected by incubating with peroxidase-conjugated monoclonal antibody CLB-CAg 12 in the same buffer for 15 min at 37° C. […] In competition experiments, FVIII light chain (25 nM) was incubated with wells containing immobilized LRP clusters, either in the presence or absence of serial dilutions of competitor in a volume of 50 μl for 2 h at 37° C. Residual FVIII binding was detected as described above. Data were corrected for binding to empty microtiter wells, which was less than 5% relative to binding to wells containing immobilized LRP clusters.
(§4) (Note to Table II: Effect of FVIII a3-A3-C1 fragment derived synthetic peptides on the interaction between FVIII light chain and LRP cluster II. FVIII light chain (25 nM) was incubated with immobilized LRP cluster II (1 pmol/well) in a volume of 50 μl in 150 mM NaCl, 5 mM CaCl2, 1% (w/v) HSA, 0.1% Tween® 20, and 50 mM Tris (pH 7.4) in the presence or absence of various concentrations of synthetic peptide (0-1 mM) for 2 h at 37° C. After washing with the same buffer, bound FVIII light chain was quantified by incubation with peroxidase-conjugated anti-FVIII antibody CLB-CAg 12 for 15 min at 37° C. Half-maximum inhibition constants (IC50) represent the mean values±S.D. of three experiments.)

[2] = biological target: FVIIIa-FIXa complex (Homo sapiens, UniProt P00451+P00740); conditions: by interfering with the assembly of the FVIIIa-FIXa complex; cited from earlier work
[3] = biological target: T2, interaction between FVIII light chain and LRP cluster II (Homo sapiens, UniProt P00451); assay: Solid-phase competition: FVIII light chain binding to immobilized LRP cluster II; conditions: FVIII light chain 25 nM
T2 construct: Recombinant LRP clusters II or IV (1 pmol/well) were adsorbed onto microtiter wells; made in house; host or cells: LRP cluster II: BHK cells; FVIII light chain: plasma-derived
T2 sequence (P00451 1668-2351): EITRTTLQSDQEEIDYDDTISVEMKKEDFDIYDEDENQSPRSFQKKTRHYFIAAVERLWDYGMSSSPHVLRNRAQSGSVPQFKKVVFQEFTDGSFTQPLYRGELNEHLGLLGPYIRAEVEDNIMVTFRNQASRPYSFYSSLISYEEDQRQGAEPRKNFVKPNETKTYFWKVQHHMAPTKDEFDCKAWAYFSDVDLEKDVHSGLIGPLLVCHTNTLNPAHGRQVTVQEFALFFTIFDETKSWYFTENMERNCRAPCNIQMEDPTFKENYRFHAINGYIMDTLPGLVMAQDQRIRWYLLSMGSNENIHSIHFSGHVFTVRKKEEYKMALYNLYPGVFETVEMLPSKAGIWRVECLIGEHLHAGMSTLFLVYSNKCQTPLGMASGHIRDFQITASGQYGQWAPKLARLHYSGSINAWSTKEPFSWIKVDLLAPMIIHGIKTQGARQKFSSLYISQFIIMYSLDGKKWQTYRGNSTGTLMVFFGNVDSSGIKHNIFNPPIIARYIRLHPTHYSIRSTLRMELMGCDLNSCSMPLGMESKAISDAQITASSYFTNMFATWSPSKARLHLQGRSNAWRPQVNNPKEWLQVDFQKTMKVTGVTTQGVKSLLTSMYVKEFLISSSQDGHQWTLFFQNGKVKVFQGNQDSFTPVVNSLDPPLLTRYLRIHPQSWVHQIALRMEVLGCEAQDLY
Method: as §1, §2, §3, §4

[4] = Factor VIII clearance and recovery in vWF knock out mice; format: in vivo; conditions: for Factor VIII activity in plasma: Factor VIII 200 U/kg
Method: FIG. 8. According to Example II, mice were injected either with human FVIII alone, human FVIII in the presence of a control scFv-fragment (KM38) and with human FVIII in the presence of a scFv-fragment (KM33) specifically interfering with the putative FVIII-LRP interaction.
Experimental procedure: vWF knock out mice (decreased endogenous Factor VIII, 20% Factor VIII compared to healthy animals) were treated with human recombinant Factor VIII (Recombinate™; 200 U/kg) and recombinant scFv (KM33) in excess. (30 nM versus 3 nM Factor VIII in plasma). In control experiments, Factor VIII and a control scFv fragment (KM38) binding to a different domain as the proposed LRP binding
site on the Factor VIII molecule were used in the same concentrations. Infusion of recombinant FVIII without any addition was used to monitor the clearance of Factor VIII in this model system.
At defined time points (15, 30, 60, 120 and 240 minutes) after injection, blood was collected by heart puncture, plasma was subsequently isolated, shock frozen and analyzed for Factor VIII activity. Ten mice were used at each time point, plasma was diluted to 3 concentrations (1:20, 1:60 and 1:100) and analyzed in duplicate. Factor VIII levels were quantified by performing a quantitative ELISA.

FVIIIa-FIXa complex, sequence (P00740 47-191 limits assumed, one chain of several): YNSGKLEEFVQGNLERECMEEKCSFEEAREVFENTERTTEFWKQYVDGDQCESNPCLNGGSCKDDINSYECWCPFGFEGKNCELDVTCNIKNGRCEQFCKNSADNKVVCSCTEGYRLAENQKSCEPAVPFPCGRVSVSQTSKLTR

Question: Which IC50 [1] does the source give for TENMERNCRA [Residues 1892-1901] here?
Answer: > 1000 µM

Question: For TVRKKEEYK [Residues 1964-1972], which IC50 [1] is on record?
Answer: > 1000 µM

Question: Which IC50 [1] does the source give for WDYGMSSSPHVLRNR [Residues 1707-1721] here?
Answer: > 1000 µM

Question: For “YFWKVQHHMAPTKDEFDCKA [Residues 1815-1834]”, which IC50 [1] is on record?
Answer: ~16.8 µM and 16.8 µM

Question: What about the “Inhibition of FVIII procoagulant activity” value [2] of the same molecule?
Answer: effective inhibitors

B1: scFv KM33: scFv antibody fragment against FVIII light chain; does not require A3 domain region 1778-1818; LRP blocking (protein)
scFv: EVQLVESGGGVVQPGRSLRLSCVDSGLTFSSYGMHWVRQAPGAGLEWVAVISYDGNDKYYADSVKGRFAISRDNAKNTLYLQMNSLTIEDTAVYYCAKDLIESNIAEAFWGQGTLVTVSSGGGGSGGGGSGGGGSDIQMTQSPSSLSASVGDTVTIACRASRDIRNDLAWYQQKPGKAPKLLIYATSRLQSGVPSRFSGSGSFTDFTLTINSLQPDDSATYYCLQDSDYPLTFGGGTKVDIKRAAAEQKLISEEDLNGAAHHHHHH
Question: For B1, which “Effect on binding of FVIII light chain to immobilized LRP cluster II” value [3] is on record?
Answer: effectively inhibited

Question: What about the “Factor VIII recovery” value ([4]; 15 minutes after injection) of the same molecule?
Answer: 30.4%

Question: What about the “Factor VIII activity in plasma” value ([4]; 15 minutes after injection) of the same molecule?
Answer: about 0.8 U/mL

Question: What about the “Factor VIII recovery” value ([4]; 30 minutes after injection) of the same molecule?
Answer: 20%

Question: And the “Factor VIII activity in plasma” value ([4]; 30 minutes after injection)?
Answer: 0.5 U/mL

Question: What about the “Factor VIII recovery” value ([4]; 60 minutes after injection) of the same molecule?
Answer: 14%

Question: What about the “Factor VIII activity in plasma” value ([4]; 60 minutes after injection) of the same molecule?
Answer: 0.35 U/mL

Question: And the FVIII activity levels ([4]; four hours after injection)?
Answer: reached the background activity of mouse Factor VIII

Question: And the “Inhibition of FVIII procoagulant activity” value [2]?
Answer: effective inhibitors
